Experimental data: publication PMC10443397

Target: triple-phosphorylated Schizosaccharomyces pombe Dss1, fluorescein-labelled on the C-terminal cysteine (S. pombe) (UniProt O14140)
Test: MST

B1: FHA domain of Schizosaccharomyces pombe Dma1 (residues 25-160) (domain or fragment)
chain: DKISIRLTNFVGPNAHSFSFDPLVRYWNRKQNNLPIYIGRYTERYNGGDVSAIVFRSKVVSRRHAQIFYENNTWYIQDMGSSSGTFLNHVRLSPPSKTSKPYPISNNDILQLGADYRGGHEVNYRCVRARVELNNS
  Kd: 1300 nM
